Assay results: patent US20250027068A1 (published 2025)
Residue numbers refer to the chain shown, from its start.

B1: PRT-426 (enzyme)
chain: MTITSVWTKGVTPPTPEDFRYNNEDVLHAPYVANQGWYDITKTFDGKDNLLCGAATAGNMLHWWFDQNKEEIERYLKKHPEKQKIIFNNQELFDVKAAIDTKDSQTNSKLFNYFRDKAFPNLSARQLGVFPDLVLDMFINGYYLNLGKTQSTDVNRPYQDKDKRGGIFDAVFTRGDQTTLLTARHDLKNKGLNEISDLIKQELTEGKALALSHTYANVRINHVINLWGADFDAEGNLIAIYVTDSDANASIGMKKYFVGVNANGKVAISAKKIEGDNIGAQVLGLFTLSTGQDIWQKLS
B2: PRT-379 (enzyme)
chain: MVTSVWTKGVTPPTNFTYGEDVLHAPYVANQGWYDITKTFNGKDDLLCGAATAGNMLHWWFDQNKEQIENYLKKHPEKQKINFNGEQMFDVKEAIDTKDSQLDSKLFEYFKEKAFPYLSTKHLGVFPDHVIDMFINGYRLSLLNHGPTPVKRGSKDPRGGIFDAVFTRGDQSKLLTNRHDFKEKTLKEISDLIKQELTEGKALGISHTYANVRINHVINLWGADFDAEGNLEAIYVTDSDSNASIGMKKYFVGVNSNGKVAISAKEIEEDNIGAQVLGLFTLSTGQDIWNQTN
B3: PRT-387 (enzyme)
chain: B2 chain with L143T, N257S
B4: PRT-395 (enzyme)
chain: MVTSVWTKGVTPPADFTQGEDVFHAPYVANQGWYDITKTFNGKDDLLCGAATAGNMLHWWFDQNKEYIEAYLKKHPEKQKIMFGDQELLDVRKAINTKGSQKNSELFNYFRDKAFPTLSARRLGVMPDLVLDMFINGYYLNVTKTQTTDVNRTYQEKDKRGGIFDAVFTRGDQSKLLTSRHDFKEKGLKEISDLIKQELTEGKALGLSHTYANVRINHVINLWGADFDSDGNLKAIYVTDSDSNASIGMKKYFVGVNSAGKVAISAKEIKEDNIGAQVLGLFTLSTGQDIWNQTN
B5: PRT-411 (enzyme)
chain: B4 chain with T117N, N244R
B6: PRT-403 (enzyme)
chain: B4 chain with T117N, N217S
B7: PRT-444 (enzyme)
chain: MSQTEDSESLQRLRDIEDFQAEKKKQNVVYTKWLDGVDVKDHDFRKIVDGNIAYYATPLLNGRGFYDINKDFNRDSDKCAAAVAANMFHYWLDRNRDNVDRFLRQNPEKHGIIELPDGQLKLSDFLNTYESDDGYRDKSKLFDFISNNFNKPVWTDKLLDNYINGYAYNYKYGRTIEDPTKNTSKINFFKEVFNEKILTNNHSIRNQNEFSVLLSEALYTGKAIGLSYGPAGLRHSLGHIISVWGADLDADGNVVAIYVTDSDDKKLTIGDERVGLKRYKISTDDEGRLRLTAYEETHNTGGQIRGLWTLDTGKQAWADYFDKTEQTGTDQAEQ

target: pooled human IgG (human IgG1, 2, 3 and 4) (human); assay: cell-based or functional assay
Also: test concentration or dose not given here.

Row | Binder | Enzyme Activity Endpoint Assay: Fab′2 [ng/µL] | Enzyme Activity Endpoint Assay: Fc [ng/µL] | Enzyme Activity Endpoint Assay: IgG [ng/µL] | Enzyme Activity Endpoint Assay: scIgG [ng/µL]
1 | B1 | 508 | 283 | 243 | 0
2 | B2 | 599 | 370 | 0 | 226
3 | B3 | 605 | 366 | 0 | 242
4 | B4 | 544 | 358 | 0 | 204
5 | B5 | 519 | 341 | 90 | 155
6 | B6 | 569 | 332 | 166 | 40
7 | B7 | 494 | 321 | 0 | 286
